Laboratory results: US20220298260A1 (MYTHIC THERAPEUTICS, published 2022)
Residue numbers refer to the chain shown, from its start. Blank lines part the entries; values can stand above or below the binder they belong to.

Key:
[1] = target: T1, FOLR1 (R&D Systems, Cat #5646-FR) (human, UniProt P15328 25-233); test: BLI, IgG on anti-human Fc sensor
T1 construct: Bought soluble protein; also called Folate Receptor 1

[2] = target: T1, FOLR1 (R&D Systems, Cat #5646-FR); test: BLI, IgG on anti-human Fc sensor, 50 nM FOLR1

T1 sequence (P15328 25-233 limits assumed): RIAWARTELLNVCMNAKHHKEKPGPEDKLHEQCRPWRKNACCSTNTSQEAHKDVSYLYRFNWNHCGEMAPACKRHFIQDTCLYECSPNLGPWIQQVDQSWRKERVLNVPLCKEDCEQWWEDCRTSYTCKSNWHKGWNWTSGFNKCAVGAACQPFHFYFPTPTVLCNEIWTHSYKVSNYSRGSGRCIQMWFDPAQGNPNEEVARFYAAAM

binding result [1]: no binding (tested: 50 nM)
B1: MYT2244 (antibody, V domains shown)
VH: EVQLVESGGGLVQPGGSLRLSCAASGFNIRTQSIHWVRQAPGKGLEWIGDIFPIDGITHYADSVKGRFTISADTSKNTAYLQMNSLRAEDTAVYYCARGSWSWPSGMDYYLDYWGQGTLVTVSS
VL: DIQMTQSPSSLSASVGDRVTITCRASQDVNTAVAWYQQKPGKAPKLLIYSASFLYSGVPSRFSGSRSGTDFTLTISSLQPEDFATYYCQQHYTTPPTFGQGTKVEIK
notes: IgG

binding result [1]: no binding (tested: 50 nM)
B2: MYT4503 (antibody, V domains shown)
VH: B1 VH with H59D
VL: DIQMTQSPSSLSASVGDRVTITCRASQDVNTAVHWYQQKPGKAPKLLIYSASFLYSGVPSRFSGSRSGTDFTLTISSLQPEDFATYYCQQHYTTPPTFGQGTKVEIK
notes: IgG

binding result [1]: no binding (tested: 50 nM)
B3: MYT2259 (antibody, V domains shown)
VH: B1 VH with H59D, P104H
VL: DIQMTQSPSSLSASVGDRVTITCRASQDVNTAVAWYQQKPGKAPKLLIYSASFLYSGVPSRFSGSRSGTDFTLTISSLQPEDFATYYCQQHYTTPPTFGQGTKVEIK
notes: IgG

binding result [1]: no binding (tested: 50 nM)
B4: MYT2254 (antibody, V domains shown)
VH: B1 VH with H59D, G99H
VL: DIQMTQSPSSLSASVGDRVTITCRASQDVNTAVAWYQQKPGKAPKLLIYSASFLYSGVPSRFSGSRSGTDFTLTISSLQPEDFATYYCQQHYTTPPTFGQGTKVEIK
notes: IgG

binding result [1]: no binding (tested: 50 nM)
B5: MYT4501 (antibody, V domains shown)
VH: B1 VH with H59D
VL: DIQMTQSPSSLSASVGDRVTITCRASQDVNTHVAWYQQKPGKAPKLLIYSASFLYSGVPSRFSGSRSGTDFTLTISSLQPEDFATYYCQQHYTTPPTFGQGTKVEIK
notes: IgG

binding result [1]: no binding (tested: 50 nM)
B6: MYT2261 (antibody, V domains shown)
VH: B1 VH with H59D, G106H
VL: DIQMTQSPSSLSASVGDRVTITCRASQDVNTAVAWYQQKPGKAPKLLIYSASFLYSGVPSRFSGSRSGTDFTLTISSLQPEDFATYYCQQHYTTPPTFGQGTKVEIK
notes: IgG

binding result [1]: no binding (tested: 50 nM)
B7: MYT2252 (antibody, V domains shown)
VH: B1 VH with H59D, A97H
VL: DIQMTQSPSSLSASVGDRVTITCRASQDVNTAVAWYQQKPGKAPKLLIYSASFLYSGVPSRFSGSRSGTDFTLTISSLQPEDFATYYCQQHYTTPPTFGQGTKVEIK
notes: IgG

binding result [1]: no binding (tested: 50 nM)
B8: MYT2194 (antibody, V domains shown)
VH: EVQLVESGGGVVQPGRSLRLSCSASGFTFSGYGLHWVRQAPGKGLEWVAMISSGGSYTYYADSVKGRFAISRDNAKNTLFLQMDSLRPEDTGVYFCARHGDDPAWFAYWGQGTPVTVSS
VL: DIQLTQSPSSLSASVGDRVTITCSVSSSISSNNLHWYQQKPGKAPKPWIYGTSNLASGVPSRFSGSGSGTDYTFTISSLQPEDIATYYCQQWSSYPYMYTFGQGTKVEIK
notes: IgG

binding result [1]: no binding (tested: 50 nM)
B9: MYT2196 (antibody, V domains shown)
VH: B8 VH with H35S, I51H
VL: B8 VL
notes: IgG

binding result [2]: binds
B10: MYT4532 (antibody, V domains shown)
VH: B8 VH with H35S
VL: B8 VL with N54H
notes: IgG

binding result [2]: binds
B11: MYT4533 (antibody, V domains shown)
VH: B8 VH with H35S
VL: B8 VL with L55H
notes: IgG

binding result [2]: binds
B12: MYT4534 (antibody, V domains shown)
VH: B8 VH with H35S
VL: B8 VL with A56H
notes: IgG

binding result [2]: binds
B13: MYT4541 (antibody, V domains shown)
VH: B8 VH with H35S
VL: B8 VL with Y95H
notes: IgG

binding result [1]: no binding (tested: 50 nM)
B14: MYT2221 (antibody, V domains shown)
VH: B8 VH with H35S, F106H
VL: B8 VL
notes: IgG

binding result [1]: no binding (tested: 50 nM)
B15: MYT2195 (antibody, V domains shown)
VH: B8 VH with H35S, M50H
VL: B8 VL
notes: IgG

binding result [2]: binds
B16: MYT4530 (antibody, V domains shown)
VH: B8 VH with H35S
VL: B8 VL with T52H
notes: IgG

binding result [2]: binds
B17: MYT4537 (antibody, V domains shown)
VH: B8 VH with H35S
VL: B8 VL with Q91H
notes: IgG

binding result [2]: binds
B18: MYT4545 (antibody, V domains shown)
VH: B8 VH with H35S
VL: B8 VL with Y99H
notes: IgG

binding result [2]: binds
B19: MYT4536 (antibody, V domains shown)
VH: B8 VH with H35S
VL: B8 VL with Q90H
notes: IgG

binding result [2]: binds
B20: MYT4528 (antibody, V domains shown)
VH: B8 VH with H35S
VL: B8 VL with H35A
notes: IgG

binding result [2]: binds
B21: MYT4531 (antibody, V domains shown)
VH: B8 VH with H35S
VL: B8 VL with S53H
notes: IgG

binding result [2]: binds
B22: MYT4544 (antibody, V domains shown)
VH: B8 VH with H35S
VL: B8 VL with M98H
notes: IgG

binding result [2]: binds
B23: MYT4535 (antibody, V domains shown)
VH: B8 VH with H35S
VL: B8 VL with S57H
notes: IgG

binding result [2]: binds
B24: MYT4542 (antibody, V domains shown)
VH: B8 VH with H35S
VL: B8 VL with P96H
notes: IgG

binding result [2]: binds
B25: MYT4529 (antibody, V domains shown)
VH: B8 VH with H35S
VL: B8 VL with G51H
notes: IgG

binding result [1]: no binding (tested: 50 nM)
B26: MYT2215 (antibody, V domains shown)
VH: B8 VH with H35S, G100H
VL: B8 VL
notes: IgG

binding result [2]: binds
B27: MYT4538 (antibody, V domains shown)
VH: B8 VH with H35S
VL: B8 VL with W92H
notes: IgG

binding result [1]: no binding (tested: 50 nM)
B28: MYT2219 (antibody, V domains shown)
VH: B8 VH with H35S, A104H
VL: B8 VL
notes: IgG

binding result [1]: no binding (tested: 50 nM)
B29: MYT2217 (antibody, V domains shown)
VH: B8 VH with H35S, D102H
VL: B8 VL
notes: IgG

binding result [2]: binds
B30: MYT4539 (antibody, V domains shown)
VH: B8 VH with H35S
VL: B8 VL with S93H
notes: IgG

binding result [2]: binds
B31: MYT4543 (antibody, V domains shown)
VH: B8 VH with H35S
VL: B8 VL with Y97H
notes: IgG

binding result [2]: binds
B32: MYT4540 (antibody, V domains shown)
VH: B8 VH with H35S
VL: B8 VL with S94H
notes: IgG

binding result [2]: binds
B33: MYT4546 (antibody, V domains shown)
VH: B8 VH with H35S
VL: B8 VL with T100H
notes: IgG

binding result [2]: binds
B34: MYT4527 (antibody, V domains shown)
VH: B8 VH with H35S
VL: B8 VL with L34H
notes: IgG

binding result [1]: no binding (tested: 50 nM)
B35: MYT0613 (antibody, V domains shown)
VH: QVQLVQSGAEVVKPGASVKISCKASGYTFTGYFMNWVKQSPGQSLEWIGRIHHYDGDTFYNQKFQGKATLTVDKSSNTAHMELLSLTSEDFAVYYCTRYDGSRAMDYWGQGTTVTVSS
VL: DIVLTQSPLSLAVSLGQPAIISCKASQSVSFAGTSLMHWYHQKPGQQPRLLIYRASNLEAGVPDRFSGSGSKTDFTLTISPVEAEDAATYYCQQSREYPYTFGGGTKLEIK
notes: IgG

binding result [1]: no binding (tested: 50 nM)
B36: MYT0634 (antibody, V domains shown)
VH: B35 VH with H53P, A104H
VL: B35 VL
notes: IgG

binding result [1]: no binding (tested: 50 nM)
B37: MYT0631 (antibody, V domains shown)
VH: B35 VH with H53P, G101H
VL: B35 VL
notes: IgG
